# Test results published in patent US20080299088A1 (US Dept. of Health and Human Services, published 2008).
# Molecular target: Notch-1 receptor on RIN 1046-38 clonal rat beta-cells (rat, UniProt Q07008 19-2531)
# Test: cell-based or functional assay
# Chain of Notch-1 receptor on RIN 1046-38 clonal rat beta-cells (Q07008 19-2531): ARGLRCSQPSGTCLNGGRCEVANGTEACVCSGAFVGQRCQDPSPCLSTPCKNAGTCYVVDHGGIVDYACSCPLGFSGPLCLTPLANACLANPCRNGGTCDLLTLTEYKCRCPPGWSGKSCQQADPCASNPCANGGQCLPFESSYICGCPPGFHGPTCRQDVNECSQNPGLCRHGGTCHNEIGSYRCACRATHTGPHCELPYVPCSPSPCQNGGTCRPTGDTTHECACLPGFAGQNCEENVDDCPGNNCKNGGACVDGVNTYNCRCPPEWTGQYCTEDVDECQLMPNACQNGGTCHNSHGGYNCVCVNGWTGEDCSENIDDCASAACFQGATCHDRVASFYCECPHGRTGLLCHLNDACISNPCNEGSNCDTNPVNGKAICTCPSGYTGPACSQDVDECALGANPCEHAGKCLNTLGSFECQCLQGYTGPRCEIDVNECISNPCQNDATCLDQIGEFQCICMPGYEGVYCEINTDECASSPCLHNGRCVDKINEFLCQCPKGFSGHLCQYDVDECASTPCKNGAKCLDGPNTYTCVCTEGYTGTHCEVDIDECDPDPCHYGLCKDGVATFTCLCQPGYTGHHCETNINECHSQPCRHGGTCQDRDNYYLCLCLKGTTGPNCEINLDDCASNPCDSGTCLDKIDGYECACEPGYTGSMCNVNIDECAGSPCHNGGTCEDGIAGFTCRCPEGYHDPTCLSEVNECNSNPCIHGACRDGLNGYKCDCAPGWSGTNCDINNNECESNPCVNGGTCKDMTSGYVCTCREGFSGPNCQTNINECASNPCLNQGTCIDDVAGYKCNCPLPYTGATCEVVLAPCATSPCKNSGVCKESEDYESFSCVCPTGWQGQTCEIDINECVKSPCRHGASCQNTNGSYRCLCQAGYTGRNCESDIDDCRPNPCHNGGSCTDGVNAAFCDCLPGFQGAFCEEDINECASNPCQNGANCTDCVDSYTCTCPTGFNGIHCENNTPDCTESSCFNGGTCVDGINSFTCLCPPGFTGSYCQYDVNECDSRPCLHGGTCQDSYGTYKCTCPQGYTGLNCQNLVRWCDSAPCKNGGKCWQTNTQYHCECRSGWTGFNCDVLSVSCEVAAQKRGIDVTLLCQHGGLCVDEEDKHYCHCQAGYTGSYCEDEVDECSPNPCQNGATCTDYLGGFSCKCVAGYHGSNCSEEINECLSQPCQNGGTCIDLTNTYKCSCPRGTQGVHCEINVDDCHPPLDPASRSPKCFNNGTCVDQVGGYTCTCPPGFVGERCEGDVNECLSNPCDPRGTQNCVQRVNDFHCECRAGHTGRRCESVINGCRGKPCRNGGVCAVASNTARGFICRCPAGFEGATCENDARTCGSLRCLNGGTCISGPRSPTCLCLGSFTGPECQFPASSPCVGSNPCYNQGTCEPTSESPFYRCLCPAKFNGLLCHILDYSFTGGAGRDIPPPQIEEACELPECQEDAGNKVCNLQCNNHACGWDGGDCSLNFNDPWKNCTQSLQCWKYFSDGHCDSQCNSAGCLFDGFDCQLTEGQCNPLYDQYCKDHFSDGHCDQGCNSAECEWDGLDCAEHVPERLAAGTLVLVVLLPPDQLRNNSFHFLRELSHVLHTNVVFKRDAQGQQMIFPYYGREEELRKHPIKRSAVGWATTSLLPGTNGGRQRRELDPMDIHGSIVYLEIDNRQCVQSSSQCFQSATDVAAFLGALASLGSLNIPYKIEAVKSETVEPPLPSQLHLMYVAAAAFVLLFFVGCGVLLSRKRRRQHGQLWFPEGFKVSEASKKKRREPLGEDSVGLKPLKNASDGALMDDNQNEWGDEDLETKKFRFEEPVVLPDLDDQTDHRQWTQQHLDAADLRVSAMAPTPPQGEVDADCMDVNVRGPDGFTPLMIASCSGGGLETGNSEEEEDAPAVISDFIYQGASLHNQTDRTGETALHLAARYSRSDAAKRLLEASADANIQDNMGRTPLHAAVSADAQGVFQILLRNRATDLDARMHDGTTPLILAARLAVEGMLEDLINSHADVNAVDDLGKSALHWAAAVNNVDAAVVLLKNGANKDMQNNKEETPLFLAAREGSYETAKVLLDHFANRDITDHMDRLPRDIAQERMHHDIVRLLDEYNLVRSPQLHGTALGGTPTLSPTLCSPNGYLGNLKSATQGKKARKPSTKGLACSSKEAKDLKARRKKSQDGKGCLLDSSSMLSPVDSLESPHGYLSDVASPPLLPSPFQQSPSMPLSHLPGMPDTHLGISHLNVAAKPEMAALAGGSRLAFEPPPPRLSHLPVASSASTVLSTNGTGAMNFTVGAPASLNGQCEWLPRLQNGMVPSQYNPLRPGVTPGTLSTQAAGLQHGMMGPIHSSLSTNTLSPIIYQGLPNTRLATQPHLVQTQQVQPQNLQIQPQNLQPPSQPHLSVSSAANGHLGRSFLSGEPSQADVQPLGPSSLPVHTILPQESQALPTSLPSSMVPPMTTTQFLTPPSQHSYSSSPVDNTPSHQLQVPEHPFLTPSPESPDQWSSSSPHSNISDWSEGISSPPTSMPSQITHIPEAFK
Binder,"NICD translocation (nuclear NICD, immunoblot of nuclear extracts of RIN cells) [fold]","NICD nuclear localization, R-JAG together with glucose [fold]"
CDDYYYGFGCNKFCRPR [Jagged peptide JAG-1],4,
CDDYYYGFGCNKFGRPRDD [Jagged peptide R-JAG],4,6
